In this test the target is T1, BG505 gp120 (HIV-1 isolate BG505).
T1 construct: also called monomeric gp120; the monomer
The test can be described thus: ELISA; plates coated with 250 ng of BG505 gp120; monoclonal antibodies from 20 μg/mL in seven 6-fold dilutions; detected with alkaline phosphatase conjugated anti-human F(ab')2; room temperature. Particulars: both partners purified. On the technique in general: In an ELISA, binding on a coated surface is turned into a signal by an enzyme label.

B1: Bess2 (antibody)
VH: KVQLRESGPSLVKPSQTLSLTCTVSGFSLSDKAVGWVRQAPGKALEWLGSIDTGGSTGYNPGLKSRLSITKDNSKSQVSLSVTSVTTEDSTTYYCTTVHQTTKTTKKCPDGYNYDDGCASDLGCGEADCCCYGGYDEYGGYLYSCCSYSYTYEWYVDAWGQGLLVTVSS
VL: QAVLNQPSSVSGSLGQRVSITCSGSSSNVGNGYVSWYQLIPGSAPRTLIYGDTSRASGVPDRFSGSRSGNTATLTISSLQAEDEADYFCASAEDSSSNAVFGSGTTLTVL
notes: also called Bess2 mAb; source: Expi293 or 293F cells, transfected, purified (Protein A Sepharose or Praesto AP)
B1: the binding result was “no binding (tested: 20 μg/mL (highest concentration))”.

B2: Bess6 (antibody)
VH: KVQLRESGPSLVKPSQTLSLICTVSGFSLSDKAVGWVRQAPGKALEWLGSIDTAGTTDHHPGLKSRLSITKDNSKNQVSLSLSSVTTEDSATYYCTTVHQPTSKQYSCPDGASVRTGGGWRWLCRGHDCCCVVEYIAYEQTPCTLTRTYEWHIDAWGQGLLVTVSS
VL: QAVLNQPSSVSGSLGQRVSITCSGSSSNVGNGYVSWYQLIPGSAPRTLIYGDTSRASGVPDRFSGSRSGNTATLTISSLQAEDEADYFCASAEDSSSNAVFGSGTTLTVL
notes: also called Bess6 mAb; source: Expi293 or 293F cells, transfected, purified (Protein A Sepharose or Praesto AP)
For the molecule B2, the binding result is listed as “no binding (tested: 20 μg/mL (highest concentration))”.

(Values after publication PMC11412654, “Immunization of cows with HIV envelope trimers generates broadly neutralizing antibodies to the V2-apex from the ultralong CDRH3 repertoire” (PLOS Pathogens, 2024).)
